Measured values as given in patent US20230002480A1.

Legend:
Assay in all cases: cell-based or functional assay
[1] = target: HIV-1 Env of pseudovirus TRJO4551.58 (HIV-1)
[2] = target: HIV-1 Env of pseudovirus C3347.c11 (HIV-1)
[3] = target: HIV-1 Env of pseudovirus BJOX015000.11.5 (HIV-1)
[4] = target: HIV-1 Env of pseudovirus Q769.d22 (HIV-1)
[5] = target: HIV-1 Env of pseudovirus Ce2010_F5 (HIV-1)
[6] = target: HIV-1 Env of pseudovirus 6952.v1.c20 (HIV-1)
[7] = target: HIV-1 Env of pseudovirus C1080.c03 (HIV-1)
[8] = target: HIV-1 Env of pseudovirus X2131_C1_B5 (HIV-1)
[9] = target: HIV-1 Env of pseudovirus 3365.v2.c2 (HIV-1)
[10] = target: HIV-1 Env of pseudovirus ZM249M.PL1 (HIV-1)
[11] = target: HIV-1 Env of pseudovirus P1981_C5_3 (HIV-1)
[12] = target: HIV-1 Env of pseudovirus 62357_14_D3_4589 (HIV-1)
[13] = target: HIV-1 Env of pseudovirus Ce1086_B2 (HIV-1)
[14] = target: HIV-1 Env of pseudovirus C2101.c01 (HIV-1)
[15] = target: HIV-1 Env of pseudovirus SC422661.8 (HIV-1)
[16] = target: HIV-1 Env of pseudovirus 3301.v1.c24 (HIV-1)
[17] = target: HIV-1 Env of pseudovirus WITO4160.33 (HIV-1)
[18] = target: HIV-1 Env of pseudovirus BJOX025000.01.1 (HIV-1)
[19] = target: HIV-1 Env of pseudovirus 6811.v7.c18 (HIV-1)
[20] = target: HIV-1 Env of pseudovirus ZM109F.PB4 (HIV-1)
[21] = target: HIV-1 Env of pseudovirus Ce0393_C3 (HIV-1)
[22] = target: HIV-1 Env of pseudovirus T251-18 (HIV-1)
[23] = target: HIV-1 Env of pseudovirus CNE19 (HIV-1)
[24] = target: HIV-1 Env of pseudovirus CAP210.2.00.E8 (HIV-1)
[25] = target: HIV-1 Env of pseudovirus BF1266.431a (HIV-1)
[26] = target: HIV-1 Env of pseudovirus 6545.v4.c1 (HIV-1)
[27] = target: HIV-1 Env of pseudovirus ZM197M.PB7 (HIV-1)
[28] = target: HIV-1 Env of pseudovirus 1056_10_TA11_1826 (HIV-1)
[29] = target: HIV-1 Env of pseudovirus ZM53M.PB12 (HIV-1)
[30] = target: HIV-1 Env of pseudovirus Ce0682_E4 (HIV-1)
[31] = target: HIV-1 Env of pseudovirus 231965.c01 (HIV-1)
[32] = target: HIV-1 Env of pseudovirus HIV-16055-2.3 (HIV-1)
[33] = target: HIV-1 Env of pseudovirus CNE58 (HIV-1)
[34] = target: HIV-1 Env of pseudovirus 6480.v4.c25 (HIV-1)
[35] = target: HIV-1 Env of pseudovirus 9004SS_A3_4 (HIV-1)
[36] = target: HIV-1 Env of pseudovirus R2184.c04 (HIV-1)
[37] = target: HIV-1 Env of pseudovirus 249M B10 (HIV-1)

Work on N49P6 (antibody) yielded an IC50 [1] of 0.255 µg/mL, an IC80 [1] of 0.874 µg/mL and an MPI [1] of 100. It also gave an IC50 [2] of 0.08 µg/mL, an IC80 [2] of 0.266 µg/mL and an MPI [2] of 100. It also gave an IC50 [3] of 0.07 µg/mL, an IC80 [3] of 0.312 µg/mL and an MPI [3] of 100. It also gave an IC50 [4] of 0.072 µg/mL, an IC80 [4] of 0.318 µg/mL and an MPI [4] of 100. The IC50 [5] was 0.124 µg/mL, the IC80 [5] was 0.749 µg/mL and the MPI [5] was 100. The IC50 [6] was 16.9 µg/mL, the IC80 [6] was > 50 µg/mL and the MPI [6] was 78. For the same substance, the IC50 [7] was 0.181 µg/mL, the IC80 [7] was 0.661 µg/mL and the MPI [7] was 100. It also gave an IC50 [8] of 0.174 µg/mL, an IC80 [8] of 0.72 µg/mL and an MPI [8] of 100. For the same substance, the IC50 [9] was 0.129 µg/mL, the IC80 [9] was 0.347 µg/mL and the MPI [9] was 100. The IC50 [10] was 0.112 µg/mL, the IC80 [10] was 0.376 µg/mL and the MPI [10] was 100. It also gave an IC50 [11] of 0.31 µg/mL, an IC80 [11] of 0.708 µg/mL and an MPI [11] of 100. It also gave an IC50 [12] of 0.098 µg/mL, an IC80 [12] of 0.296 µg/mL and an MPI [12] of 100. The IC50 [13] was 0.581 µg/mL, the IC80 [13] was 4.09 µg/mL and the MPI [13] was 98. The IC50 [14] was 0.14 µg/mL, the IC80 [14] was 0.597 µg/mL and the MPI [14] was 100. For the same substance, the IC50 [15] was 0.129 µg/mL, the IC80 [15] was 0.36 µg/mL and the MPI [15] was 100. It also gave an IC50 [16] of 0.054 µg/mL, an IC80 [16] of 0.149 µg/mL and an MPI [16] of 100. The IC50 [17] was 0.096 µg/mL, the IC80 [17] was 0.277 µg/mL and the MPI [17] was 100. The IC50 [18] was 14.9 µg/mL, the IC80 [18] was > 50 µg/mL and the MPI [18] was 78. For the same substance, the IC50 [19] was 0.238 µg/mL, the IC80 [19] was 1.01 µg/mL and the MPI [19] was 100. It also gave an IC50 [20] of 0.084 µg/mL, an IC80 [20] of 0.29 µg/mL and an MPI [20] of 99. It also gave an IC50 [21] of 0.608 µg/mL, an IC80 [21] of 3.25 µg/mL and an MPI [21] of 100. For the same substance, the IC50 [22] was 0.344 µg/mL, the IC80 [22] was 0.929 µg/mL and the MPI [22] was 100. For the same substance, the IC50 [23] was 0.044 µg/mL, the IC80 [23] was 0.156 µg/mL and the MPI [23] was 100. The IC50 [24] was 22.6 µg/mL, the IC80 [24] was > 50 µg/mL and the MPI [24] was 73. For the same substance, the IC50 [25] was 0.083 µg/mL, the IC80 [25] was 0.283 µg/mL and the MPI [25] was 100. For the same substance, the IC50 [26] was 24.5 µg/mL, the IC80 [26] was > 50 µg/mL and the MPI [26] was 76. For the same substance, the IC50 [27] was 3 µg/mL, the IC80 [27] was 12.4 µg/mL and the MPI [27] was 98. The IC50 [28] was 0.209 µg/mL, the IC80 [28] was 0.606 µg/mL and the MPI [28] was 100. For the same substance, the IC50 [29] was 0.538 µg/mL, the IC80 [29] was 1.71 µg/mL and the MPI [29] was 100. It also gave an IC50 [30] of 0.095 µg/mL, an IC80 [30] of 0.315 µg/mL and an MPI [30] of 100. The IC50 [31] was 9.24 µg/mL, the IC80 [31] was 39.4 µg/mL and the MPI [31] was 87. The IC50 [32] was 0.117 µg/mL, the IC80 [32] was 0.586 µg/mL and the MPI [32] was 100. The IC50 [33] was 0.036 µg/mL, the IC80 [33] was 0.1 µg/mL and the MPI [33] was 100. The IC50 [34] was 0.089 µg/mL, the IC80 [34] was 0.427 µg/mL and the MPI [34] was 100. For the same substance, the IC50 [35] was 0.181 µg/mL, the IC80 [35] was 0.817 µg/mL and the MPI [35] was 100. It also gave an IC50 [36] of 0.028 µg/mL, an IC80 [36] of 0.077 µg/mL and an MPI [36] of 100. For the same substance, the IC50 [37] was 0.122 µg/mL, the IC80 [37] was 0.549 µg/mL and the MPI [37] was 100.

In the case of N49P18.1 (antibody), the IC50 [2] is reported as 4.2 µg/mL, the IC80 [2] is reported as 14.3 µg/mL and the MPI [2] is reported as 99. The IC50 [3] was 27.3 µg/mL, the IC80 [3] was > 50 µg/mL and the MPI [3] was 67. The IC50 [6] was > 50 µg/mL, the IC80 [6] was > 50 µg/mL and the MPI [6] was 30. The IC50 [7] was > 50 µg/mL, the IC80 [7] was > 50 µg/mL and the MPI [7] was 50. The IC50 [8] was 30.4 µg/mL, the IC80 [8] was > 50 µg/mL and the MPI [8] was 75. The IC50 [9] was 4.72 µg/mL, the IC80 [9] was 14.3 µg/mL and the MPI [9] was 99. For the same substance, the IC50 [11] was 19.3 µg/mL, the IC80 [11] was 45.4 µg/mL and the MPI [11] was 83. It also gave an IC50 [14] of 15.3 µg/mL, an IC80 [14] of 41.9 µg/mL and an MPI [14] of 85. For the same substance, the IC50 [16] was 3.25 µg/mL, the IC80 [16] was 11.3 µg/mL and the MPI [16] was 99. For the same substance, the IC50 [18] was 7.67 µg/mL, the IC80 [18] was 39.1 µg/mL and the MPI [18] was 85. For the same substance, the IC50 [19] was 7.43 µg/mL, the IC80 [19] was 31.9 µg/mL and the MPI [19] was 94. For the same substance, the IC50 [22] was 23 µg/mL, the IC80 [22] was > 50 µg/mL and the MPI [22] was 70. For the same substance, the IC50 [26] was > 50 µg/mL, the IC80 [26] was > 50 µg/mL and the MPI [26] was 0. For the same substance, the IC50 [31] was > 50 µg/mL, the IC80 [31] was > 50 µg/mL and the MPI [31] was 31. For the same substance, the IC50 [34] was 2.97 µg/mL, the IC80 [34] was 17.3 µg/mL and the MPI [34] was 99. The IC50 [35] was 3.02 µg/mL, the IC80 [35] was 13.9 µg/mL and the MPI [35] was 99. The IC50 [36] was 3.38 µg/mL, the IC80 [36] was 11.8 µg/mL and the MPI [36] was 100.
